From the supplement of paper PMC10567573

B1: EPB41L3 (parent)
chain: GSKFRYSGRTQAQTRRASALIDRP

Variants of: B1
Test: protein stability index of a GFP-peptide fusion (GPS, HEK-293T) (PSI 1-6); higher = more stable
Conditions: c terminus: a fixed tail appended
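Further: lentivirally expressed fusions sorted by FACS into six bins by GFP to DsRed ratio, PSI derived from sequencing read proportions per bin multiplied by bin number.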

Variant | protein stability index
GSKMRYSGRTQAQTRRASALIDRP | 3.48
GSKGRYSGRTQAQTRRASALIDRP | 3.62
GSKERYSGRTQAQTRRASALIDRP | 3.82
QSKFRYSGRTQAQTRRASALIDRP | 2.74
VSKFRYSGRTQAQTRRASALIDRP | 2.43
GSKFRYSGRTQAQTRRAAALIDRP | 3.02
GSKFRYSGRTQAQTRRATALIDRP | 2.29
GSKFRYSGRTQAQTRRACALIDRP | 2.5
GSKFRYSGRTQAQTRRAHALIDRP | 3.42
GSKFRYSGRTQAQTRRAVALIDRP | 2.85
GSKFRPSGRTQAQTRRASALIDRP | 3.68
GSKFRWSGRTQAQTRRASALIDRP | 3.49
GSKFRRSGRTQAQTRRASALIDRP | 4.23
GSKFRYSGRTQAQTRRASALRDRP | 3.71
GSKFRYSGRTQAQTRRASALPDRP | 2.71
GSKFRYSGRTQAQTRRASALFDRP | 2.97
GSKFRYSGRTQAQTRRASALYDRP | 2.73
GSKFRYSGRTQAQTRRASALQDRP | 3.06
GSKFRYSGRTQAQTRRASALEDRP | 3.4
GSKFRYSGRTQAQTRRASALSDRP | 3
GSKFRYSGRTQAQTRRASALDDRP | 3.58
GSKFRYSGRTQAQTRRASALLDRP | 3.17
GSKFRYSGRTQAQTRRPSALIDRP | 2.96
GSKFRYSGRTQAQTRRYSALIDRP | 2.54

Variant | protein stability index
GSKFRYSGRTQAQTRRISALIDRP | 3.25
GSKFRYSGRTQAQTRRCSALIDRP | 2.09
GSKFRYSGRTQAQTRRKSALIDRP | 3.16
GSKFRYSGRTQAQTRRQSALIDRP | 3.58
GSKFRYSGRTQAQTRRASARIDRP | 3.28
GSKFRYSGRTQAQTRRASAVIDRP | 3.52
GSKFKYSGRTQAQTRRASALIDRP | 2.73
GSKFSYSGRTQAQTRRASALIDRP | 3.8
GSKFPYSGRTQAQTRRASALIDRP | 3.27
GSKFYYSGRTQAQTRRASALIDRP | 2.82
GSKFFYSGRTQAQTRRASALIDRP | 2.89
GSKFDYSGRTQAQTRRASALIDRP | 3.74
GSKFLYSGRTQAQTRRASALIDRP | 2.71
GSKFAYSGRTQAQTRRASALIDRP | 3.49
GSQFRYSGRTQAQTRRASALIDRP | 2.96
GSGFRYSGRTQAQTRRASALIDRP | 1.94
GSIFRYSGRTQAQTRRASALIDRP | 2.67
GSDFRYSGRTQAQTRRASALIDRP | 2.5
GSNFRYSGRTQAQTRRASALIDRP | 3.08
GSCFRYSGRTQAQTRRASALIDRP | 1.75
GSKFRYSGSTQAQTRRASALIDRP | 3.44
GSKFRYSGITQAQTRRASALIDRP | 2.81
GSKFRYSGQTQAQTRRASALIDRP | 3.32
GSKFRYSGWTQAQTRRASALIDRP | 2.33

Variant | protein stability index
GSKFRYSGKTQAQTRRASALIDRP | 2.97
GSKFRYSGRTQALTRRASALIDRP | 2.91
GSKFRYSGRTQAGTRRASALIDRP | 3.49
GSKFRYSGRTQAFTRRASALIDRP | 2.69
GSKFRYSCRTQAQTRRASALIDRP | 1.72
GSKFRYSYRTQAQTRRASALIDRP | 2.7
GSKFRYSQRTQAQTRRASALIDRP | 3.39
GSKFRYSDRTQAQTRRASALIDRP | 3.02
GSKFRYSSRTQAQTRRASALIDRP | 3.46
GSKFRYSGRTQAQTRAASALIDRP | 2.63
GSKFRYSGRTQAQTRFASALIDRP | 2.9
GSKFRYSGRTQAQTRRASALIIRP | 2.83
GSKFRYSGRTQAQTRRASALIYRP | 2.29
GSKFRYSGRTQAQTRRASALISRP | 3.11
GSKFRYSGRTQAQTRRASALIGRP | 2.67
GSKFRYSGRTQAQTRRASALIVRP | 2.66
GSKFRYSGRTQAQTRRASALIMRP | 2.69
GSKFRYSGRTQAQTRRASALIDDP | 3.44
GSKFRYSGRTQAQTRRASALIDYP | 2.5
GSKFRYSGRTQAQTRRASALIDAP | 2.81
GSKFRYSGRTQAQTRRASALIDIP | 2.11
GSKFRYSGRTQAQTRRASALIDGP | 3.01
GSKFRYSGRTQAQTRRASALIDHP | 3.16
GSKFRYSGRTQAQTRRASALIDLP | 2.71

Variant | protein stability index
GSKFRYSGRTQAQTRRASALIDVP | 2.67
GSKFRYSGRTQAQTRRASALIDPP | 3.02
GSKFRYSGRTQAQTRRASALIDFP | 2.69
GSKFRYSGRTCAQTRRASALIDRP | 2.6
GSKFRYSGRTFAQTRRASALIDRP | 2.45
GSKFRYSGRTTAQTRRASALIDRP | 2.57
GSKFRYSGRTPAQTRRASALIDRP | 3.46
GSKFRYSGRTIAQTRRASALIDRP | 2.95
GSKFRYSGRTRAQTRRASALIDRP | 3.78
GSKFRYSGRTDAQTRRASALIDRP | 3.09
GSKFRYSGRTQEQTRRASALIDRP | 3.2
GSKFRYSGRTQKQTRRASALIDRP | 3.15
GSKFRYSGRTQNQTRRASALIDRP | 3.08
GSKFRYSGRTQWQTRRASALIDRP | 2.25
GSKFRYSGRTQAQTRRASALIDRS | 2.8
GSKFRYSGRTQAQTRRASALIDRG | 3.32
GSKFRYSGRTQAQTRRASALIDRT | 3.05
GSKFRYSGRTQAQTRRASALIDRQ | 2.79
GSKFRYSGRTQAQTRRASALIDRN | 2.8
GSKFRYSGRTQAQTRRASVLIDRP | 2.42
GSKFRYSGRTQAQTRRASFLIDRP | 2.41
GSKFRYSGRTQAQTRRASDLIDRP | 3.6
GSKFRYSGRTQAQTRRASLLIDRP | 3.12
GSKFRYSGRTQAQTRRASELIDRP | 3.28

Variant | protein stability index
GSKFRYSGRTQAQTRRASGLIDRP | 2.91
GSKFRYSGRKQAQTRRASALIDRP | 3.89
GSKFRYSGRSQAQTRRASALIDRP | 2.83
GSKFRYSGRPQAQTRRASALIDRP | 3.74
GSKFRYSGRFQAQTRRASALIDRP | 2.68
GSKFRYSGRMQAQTRRASALIDRP | 2.39
GFKFRYSGRTQAQTRRASALIDRP | 2.55
GPKFRYSGRTQAQTRRASALIDRP | 2.6
GIKFRYSGRTQAQTRRASALIDRP | 2.74
GVKFRYSGRTQAQTRRASALIDRP | 2.5
GSKFRYSGRTQAQHRRASALIDRP | 2.77
GSKFRYSGRTQAQVRRASALIDRP | 3.19
GSKFRYSGRTQAQERRASALIDRP | 3.21
GSKFRYSGRTQAQPRRASALIDRP | 2.62
GSKFRYSGRTQAQKRRASALIDRP | 3.44
GSKFRYSGRTQAQMRRASALIDRP | 2.29
GSKFRYSGRTQAQCRRASALIDRP | 1.88
GSKFRYTGRTQAQTRRASALIDRP | 2.95
GSKFRYYGRTQAQTRRASALIDRP | 2.71
GSKFRYNGRTQAQTRRASALIDRP | 3.05
GSKFRYEGRTQAQTRRASALIDRP | 3.63
GSKFRYFGRTQAQTRRASALIDRP | 2.96
GSKFRYVGRTQAQTRRASALIDRP | 2.15
